This is an account of results in the DeepSol protein solubility set.

The series is described as follows: soluble on expression in E. coli; label from the status in PepcDB or PDB records.
With “MSLNEPLAERIRPKTLEDYVSQQHLVGENGILTKLIKQGIIPSLILWGPPGIGKTTLANIIATTSNRPFYTLSAISSGVKDVRDVIEKAKKSGGLFTAKNPILFIDEIHRFSKSQQDSLLGAVEKGWVTLIGATTENPSFEVIPALLSRCQIYILNSFDKEELIALLHRAMEKDAFLSSKKIILKETEALLQVSGGDARKLLNIFELLVSVDDEVVITNELVLSKIQKNTARYDKSGPQHYDIVSAFIKSIRGSDPNAAVYWLARMIEGGEDVKFIARRMLILASEDIGNANPTALIMANNTFQAVAIVGNPESRIILSQCAIYLSNSAKSNASYLAIGAAQKLVQETGDLSVPLNLRNAPTKLMKDLDYGADYKYSHDYPNSFVAQEFLPKTLSGNKIYTPGKNPREQQFKEVLKNRWKNKYEGHHHHHH”, the “soluble on expression in E. coli” value is “not soluble”.
In the case of “MSLNFHDVRFPPSLSFGSLGGPQRRTDVVTLANGYEERNTPWAHSRRVYDAGLGMRSIDDVQALTGFFEARMGQMYGFRWKDWADFKSCASSVGVTFEDQSLGFGDGVRTDYQLVKTYSSGGHSYVRPITKPVAGTVRVGIEQDALQEGSDYEVDLSTGIIRFAHAPDPEMQVSAGFEFDVPVRFDTDRILVSVASFQAGQVPDVPVIEVRVEGHHHHHH” it was “soluble”.
As for “MSLNFTLHTLNGIKLWLVLLLLSGAINVCRADSPRQTINFNRGWKYCQGDFDHAARPGFDDSEWEKIGLPHSFSTPYFMSKDFYVGYGWYRKAFPVKKEILGKKSFLEFDGVFQEAEIFVNGHLAGTHKGGYTGFSIDISAYLKEGKNLVAVRVNNCWRPDLAPRAGEHVFSGGIYRNVRLVIKPPTYIDWYGTWITTPDLAENKGKSGSVHIRTDVCNASGKTDTYRLLTTVVDAQGKEVSSVSTSQVLPDNATYTFEQQTKEIQAPQLWHPNHPALYKVISSLYHGQELIDRYETAFGFRWFEWTADRGFFLNGEHLYFKGANVHQDHAGWGDAVTETGMRRDIRLVKEAGFDLIRGSHYPHSPAFSQACDEIGMLFWAENAFWGIGGHKGDGYWNASAYPVNESDRAEFENSVKAQLKELIRIHRNHPSIIVWSMSNEPFFTAPETINPMRKLLEETVKLSKQLDPTRPAAVGGAQRPLGEKRIDKLGDIAGYNGDGSYIPEFQQPGMPTVVSEYGSTTADRPGEYDPGWGDLAKNNAQNGFPWRSGQAIWCAFDHGSIAGSALGKMGIIDYFRIPKRAWYWYRNAYKGITEGHHHHHH”, the “soluble on expression in E. coli” value is given as “not soluble”.
As for “MSLNGGVTELSVWSGFTENDGKVVQSIADDFNKSQSNVKVTIEQNPWNVINDKLLSSISAGNGPDVVTYQPDGAKGFIKQGAIVSTDDFYSDSSNETSHYRKNVVKDGEVDGKHYGVPMGHAPYSVYFNKAIFDAAGITEDQYPKTWDDLAALASKLTVDKDGDGTPDQYGIALADKDAGYLPIFLQGAGTDLVVDGKANLTSKKSKDTLTWIRDNFYAKKSSPSNLSLVDAQTLFCSGKAAMFWIGPWIVNAAKEKGIETGTFEMPKGPEKQVTEVAANYWYTTSQVDGNDAKKKAAYAWMKFFNNKKNQITWAVKANYPPNRTDVTADDMKSNNFVSQISPYMDHSSLLLGSVPSGFADVQSELNALGPKISESTGDLTDILQKSNDKIQGYIEEGHHHHHH”, the “soluble on expression in E. coli” value is on record as “soluble”.
Turning to “MSLNGKPAVFPEVKSIKITGNKALTTEEIREVMSTSTRNSFFGTGLFAGARRPFIADDFEKDISLIRKLYTFKGYFFADVEPTVKRSKNGDVSITIRIRENQPTLLDSLSYAGLDSIPENLRSRYLKKSLLKLQQIFSVEKLIEERDRTLDFFREHGYTFFHPDSIRITVDTLGLHAGVRFDISLPGRYAYGPVKVFVHDPLKKDNPAIAKTFVRDNVSVTIYGHQKFSPKVFSSAIAWKQGALTRQSLEQRTLENFGSTNLFSSISMQKDAARAGAIPITIDLDPAPKHQIEPKLLVDNRYGSLFVGGALSYENRNLFGAGQQLKLSTNYGRQLSSDTNVLSSLSADQYDKLIPYEFNIKADLVIPRLGKQGSYYNGTVEYAQSKLPVLLDSKRELIRATYSTRPTRVSKLDFDFFELEVARKDSLRGFQQLFKNDLAQNIGINPADPVAVNRGLDSLLQTRLNQTFRLRYSLSNREKSTRSKRSPIWNFSVTAEESGSLLWLIDKYIDKKSYAGFTDSDPQIFGTPYNQYVKLDTQLAVTKNLSPKRQVAARIALGWMSPYGKADTTPEDHRFYAGGSNSMRGWVFGTLGPGSCPNAAVSNFGADIKAELGLEYRIQFFKVFGQESGIALFTDAGNIWDRTGPYAFSLRSLTQDFAWDWGAGLRIGSPIGPFRFDFAWKLHDPANPQPWRFSQTKLTDFTFNFGIGETFEGHHHHHH”, the “soluble on expression in E. coli” value was “not soluble”.
With “MSLNHLNDKVNEIKDNFYGLIGHAYLEKYITKPIVDEDKLRFLYTMLAEKLPKKDTKLFTLSALLVDAALEIHEAVSLHNIQTDPIKKNRQLNVLAGDYYSSLYYYLLADSRHLPIIQVFSHSIQEINEYKMKLYDGKNIDFDEVKNNVDKVDTFLLQNLAEHFQLTTWKKAISVFFHLKRLVHEREAWINGKATPLMKAIVTELFGSNRPVDELKKDDQLQVLELWEEKVEEGKDHLLEHVKALLPKFERFFVDHLNDLFGPDYIHEKVAEEGEGHHHHHH” the entry was “soluble”; with “MSLNIAMTGATGYIGKHLSNYLTEKGGHRIIPLGRAMFREGMSGLLVQTLTHCDVIINLAGAPINQRWTPEHKQELFNSRITVTHRIIRALNAVKTKPKLMISASAVGYYPSLVESDEYTQTRGDGFLSDLCYAWEKEAKRCPQPTRLVITRFGVVLSPDGGAMQQMLRPLRATKVAAVIGPGTQPFPWIDIRDLCCAMAFFIENEELRGVFNLVAPQAVSQSTFTRAMGKAYHAWTTEGHHHHHH”, “not soluble”.
With “MSLNITGIQSDWKVEKIEFAKLTGERARSAGANGRIGVHGKSCTVDIARITIDGQTGYGSSIHMTPEWAEDVIGRRLLDLFDDRGRLREAYRLQLEYPVLDWLGQRQGKPVYDLVSGAHLETGASLVVPCYDTSLYFDDLHLADERAAVALMQEEAMQGYAKGQRHFKIKVGRGGRHMPLWEGTKRDIAIVRGISEVAGPAGKIMIDANNAYNLNLTKEVLAALSDVNLYWLEEAFHEDEALYEDLKEWLGQRGQNVLIADGEGLASPHLIEWATRGRVDVLQYDIIWPGFTHWMELGEKLDAHGLRSAPHCYGNAYGIYASGHLSAAVRNFEFVEYDDITIEGMDVSGYRIENGEIHVPATPGFGIVFDDELVTYLINRSGWSEGHHHHHH” the entry was “soluble”; with “MSLNKEQRRITAEELQAHFEESTLSVQMIAEKLNVTTEDVEKVLAMTAPLGIFSHQLQRFIHLVWDVRDVINDNIKGNGQTPEPYTYLKGEKEDYWFLR”, “not soluble”; with “MSLNKKVVIGMSGGVDSSVAAYLLKEQGYDVIGVTMKLTPDDAFYTEQEGGCCSLSAVEDARRVAYRIGIPFYVVNFTDIFKEKVIDYFTEEYLNGKTPNPCIACNKYIKFDALLKKAESLGADYIATGHYCRIVEENGRYVIRKSEDEKKDQTYVMYNMTQDQLKHTLMPCGDYKKDRIREIAREIGLNVFDKKDSEEICFIPDNDHGGFIKRECPKAVKTGNFVDKEGKVLGKHKGIIYYTIGQRKGLGIATGKRVFVTNIDAMKNQVVIGEEEEIFENELISFKNNFIPFDKLTEPMEVDAKIRYNAKASKATIYPVDDENVKVKFEKPQRAITKGQSVVFYDGDLLVGGGIIKEGHHHHHH”, “not soluble”.
With “MSLNKLLSQLASVEILTPKIDDTLWFFKDILGLHEVGRKDRSVYLRGWEDWYAYSLKVTESDTAGVKEIVWRTYSEKDLIDSINIVNSNGLGLGWDEGEPDMGVGKGYKFILPSGQIGKLVWEMKIWRASGELRSGYKARPMKKPTKGVQAKDLSHIFIFAYNDESLAKTVELLKRLTFKVNEILKEGDKRIAYWMAVNGTAHDLAVSLDPSGVPARLNHVTFNVDYADDILKAADFYTDYGLEIVGGPLRHGITDSHSLYVKEPGGNVIELLHGGYLNVVPDWEPIVWDTKEDENRWLYYWGHVKEAFWHGEGHHHHHH” the entry was “not soluble”.
On to “MSLNLIFKKKSYSFKLSTKVENSKTTYLTKLGWIIKLTSNDKKIGFGEVSPLLEEDLKKCAKQLNMIPKNVEAFNLSEQINIFHPCIQSAINSALAEINGKIIFKENYTFDEIDKTAILLNSENVITELNEIKQRQSIIGKSVTIKWKVALRDNHEEEANLEEILSQIGNNIKLRIDANGSWSRKIANRWADILKDNKNIDWLEQPLCVEDIEGMKELNKKIPIALDESLLKFPTLIDEWKGWQIRRPSQENNPVKLLRELENKKALISISTSFETGIGKRWLYHLSSLQLQGPTPKVPGLGMNKFPNSFLFLNEAKKIWDQLEGHHHHHH”, for which the “soluble on expression in E. coli” value was “not soluble”.
For “MSLNPRIDYLKSLSTLAAEIYPDIRGVKKLRYNARFCLWGILMPDTLARIQDLLNQPSFHPVRQHYPRTLEKPLKPYVCVKWPPQERAQRLIEHFAFLEKRHAQLLPLIYRHQGWSLFQHELFSIQLCHGPEREGSLALVLLSQDHQPLFTLAFNISGRNKPVIHIGALQGPGPNVENRQEIIRQLTHQLHGLRPKALIMEVLLILARYWCVEKVYGVTNEGHVYQALRYIGSKRSSVRFQYSELWQEMGGEAINPYWHSLPTHPPRKAPLSLSKTKRRLYTKRYAWLTELEQSIQANLQPWDNEIHHEGHHHHHH”, the “soluble on expression in E. coli” value was “soluble”.
With “MSLNQPLLSVNNLTHLYAPGKGFSDVSFDLWPGEVLGIVGESGSGKTTLLKSISARLTPQQGEIHYENRSLYAMSEADRRRLLRTEWGVVHQHPLDGLRRQVSAGGNIGERLMATGARHYGDIRATAQKWLEEVEIPANRIDDLPTTFSGGMQQRLQIARNLVTHPKLVFMDEPTGGLDVSVQARLLDLLRGLVVELNLAVVIVTHDLGVARLLADRLLVMKQGQVVESGLTDRVLDDPHHPYTQLLVSSVLEGHHHHHH” the entry was “soluble”; with “MSLNREAQGSQEGVRIRKARAQDIPIVMEINLESLPENYWYGFYKYILDNWGEAFLVAEVGGEIVGYAMSRVEQTSDPVLLGMKDELEGDKSVIDKILDAIRNQLSEERPVGHLVSIAVRPGFRGRGIGSKLLSATVRVMKNVYRVDAIFLEVRVSNMPAIRLYEKFGFRKVRRIKGYYRDGEDAFVMVKRLLEGHHHHHH”, “soluble”; with “MSLNRNAILSKRQKQFIERVAWGASYKEVADFFHVSWSTVDNTLRNAKTKLGLSKVTELGAWWFCTNYGISFDLSPIARQCTAGIILFLFSLGEVTTITDASYTMQIVRRTRTEYRIRRHETSIYQPYIINEGHHHHHH”, “not soluble”.
With “MSLNRPAPVEISYENMRFLITHNPTNATLNKFTEELKKYGVTTLVRVCDATYDKAPVEKEGIHVLDWPFDDGAPPPNQIVDDWLNLLKTKFREEPGCCVAVHCVAGLGRAPVLVALALIECGMKYEDAVQFIRQKRRGAFNSKQLLYLEKYRPKMRLRFRDTNGEGHHHHHH” the entry was “soluble”.
In the case of “MSLNSSQIQSVNVELFNVPLDEVLNDAKHGDHTHFELILCTITCTDGTQGVGYTYTGGKGGRAIYSLLNDELKPFLMGKDASCINHLWEEMQYHLHYVGRGGLVSFAISAVDIALWDIHCKVLNQPLWKVAGGCSDRVNCYAGGIDLNFSTEKLLGNIQGYLDCGFEAVKIKVGKEDYREDVARVAAVRNLIGPDAIFMVDANYSLTVNKAIKFAQAIEQYDITWFEEPTIPDDFAGFAHIASKINIPLAMGENLHTIYEFNQAISQAKLGFLQPDASNIGGITGWLTVAQMGYANNLPICSHGMHELHVSLMASQPNAGYLEVHSFPIDRYTTHPLKLENGKAVAPSTPGVGVEFKTELLLPYLVKHSEGHHHHHH” it was “soluble”.
